This is an account of results in paper PMC9104804, “Fine-Tuning Modulation of Oxidation-Mediated Posttranslational Control of Bradyrhizobium diazoefficiens FixK2 Transcription Factor”.

Residue numbers refer to the chain shown, from its start.

For data set [1], the target named is T1, C183D FixK2 C183D (Bradyrhizobium diazoefficiens 110spc4) (UniProt O69245).
T1 sequence: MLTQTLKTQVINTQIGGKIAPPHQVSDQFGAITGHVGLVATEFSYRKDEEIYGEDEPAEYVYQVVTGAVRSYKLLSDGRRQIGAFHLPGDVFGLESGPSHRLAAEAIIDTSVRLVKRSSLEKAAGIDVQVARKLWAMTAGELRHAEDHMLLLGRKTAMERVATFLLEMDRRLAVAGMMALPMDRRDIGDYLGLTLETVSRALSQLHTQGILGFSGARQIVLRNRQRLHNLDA
Briefly: EMSA. The following applies: EMSA: 40 mM Tris-HCl pH 8, 10 mM MgCl2, 0.1 mM EDTA, 0.1 mM DTT, 150 mM KCl, 0.4 mM K3PO4, room temperature, 30 min; SPR: 40 mM Tris-HCl pH 7.0, 150 mM KCl …; scale: fold higher protein concentration than C183S for similar shift.

In data set [2] the target is C183S FixK2 protein variant of Bradyrhizobium diazoefficiens (Bradyrhizobium diazoefficiens) (UniProt Q89RK6). Briefly: SEC; analytical SEC, Superdex 200 10/300 GL, room temperature, 40 mM Tris-HCl pH 7.0, 150 mM KCl, 0.1 mM EDTA; 100 µL samples loaded at 2.5-30 µM (native) or 2.5-40 µM (C183S, C183D); concentrations refer to the dimeric form; monomer-dimer equilibrium.

In data set [3] the target is T2, C183S FixK2 C183S (Bradyrhizobium diazoefficiens 110spc4) (UniProt O69245).
T2 sequence: T1 sequence with D183S
Briefly: EMSA. As to conditions: EMSA: 40 mM Tris-HCl pH 8, 10 mM MgCl2, 0.1 mM EDTA, 0.1 mM DTT, 150 mM KCl, 0.4 mM K3PO4, room temperature, 30 min; SPR: 40 mM Tris-HCl pH 7.0, 150 mM KCl ….

In data set [4] the target is FixK2 protein (native, wild type) of Bradyrhizobium diazoefficiens (Bradyrhizobium diazoefficiens) (UniProt Q89RK6). Briefly: SEC; analytical SEC, Superdex 200 10/300 GL, room temperature, 40 mM Tris-HCl pH 7.0, 150 mM KCl, 0.1 mM EDTA; 100 µL samples loaded at 2.5-30 µM (native) or 2.5-40 µM (C183S, C183D); concentrations refer to the dimeric form; monomer-dimer equilibrium.

Data set [5] deals with C183D FixK2 protein variant of Bradyrhizobium diazoefficiens (Bradyrhizobium diazoefficiens) (UniProt Q89RK6). Described as above.
Data set [6] addresses T3, C183S FixK2 (Bradyrhizobium diazoefficiens 110spc4, UniProt O69245 1-232, C183S).
T3 sequence: T1 sequence with D183S
Briefly: SPR; sensorgram at 250 nM; nanomolar affinity only cited from earlier study; EMSA: 40 mM Tris-HCl pH 8, 10 mM MgCl2, 0.1 mM EDTA, 0.1 mM DTT, 150 mM KCl, 0.4 mM K3PO4, room temperature, 30 min; SPR: 40 mM Tris-HCl pH 7.0, 150 mM KCl, 0.1 mM EDTA, 0.005% Tween 20, 25 °C. As to conditions: protein: recombinant; tags: untagged after cleavage of C-terminal Mxe GyrA intein-CBD (IMPACT, pTXB1); chain copies: 2; label: biotin; blunt.

Take fixNOQP promoter 90-bp PCR fragment: in data set [1], the binding signal stood at 32. The molecule “C183S FixK2 protein variant of Bradyrhizobium diazoefficiens (from UniProt Q89RK6 4-235) (natural protein)” returned a stoichiometry N in data set [2] of 2. Turning to “AAGAACACAGCGCCAGAAACCACATTCACCCTCGCGGGGAATTGATTGAAATCAAGATAGGTGGATTTCTGTTAATGTGAGGCTTTCGCG (double strand) [fixNOQP promoter 90-bp PCR fragment]”, in data set [3], the binding result is recorded as “binds”. For the same molecule, the binding signal in data set [1] was 32. In data set [4], “FixK2 protein (native, wild type) of Bradyrhizobium diazoefficiens (from UniProt Q89RK6 4-235) (natural protein)” returned a stoichiometry N of 2. For the molecule “C183D FixK2 protein variant of Bradyrhizobium diazoefficiens (from UniProt Q89RK6 4-235) (natural protein)”, the stoichiometry N in data set [5] stood at 2.

B1: fixN_3 FixK2 box duplex (SPR) (dsDNA)
DNA 1: CCACCTATCTTGATTTCAATCAATTCCCCG
DNA 2: CGGGGAATTGATTGAAATCAAGATAGGTGG
modifications: 5'-biotin on reverse strand (S47)
On to B1, for which the binding result in data set [6] is reported as “binds”.
